Patent US20110070610

T1: pACSH248 fusion protein (S661 peptide with N-terminal SEQ ID NO:19 tag and TEV cleavage site linker)
T1 chain: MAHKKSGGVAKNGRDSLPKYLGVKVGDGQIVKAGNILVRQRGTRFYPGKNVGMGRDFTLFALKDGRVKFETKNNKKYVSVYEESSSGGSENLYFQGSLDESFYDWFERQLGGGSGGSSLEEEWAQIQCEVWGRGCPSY

T2: pACSH360 fusion protein (S661 peptide with N-terminal SEQ ID NO:19 tag and HAV18 3C cleavage site linker)
T2 chain: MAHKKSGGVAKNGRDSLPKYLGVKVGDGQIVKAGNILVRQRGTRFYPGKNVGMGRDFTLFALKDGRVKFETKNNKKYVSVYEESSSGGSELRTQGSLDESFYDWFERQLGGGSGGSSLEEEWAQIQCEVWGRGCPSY


Columns and labels:
[1] = target: T1, pACSH248 fusion protein (S661 peptide …)
[2] = target: T2, pACSH360 fusion protein (S661 peptide …)

Row | Protein | cleavage of fusion protein, LC-MS, 8 hours, enzyme to substrate ratio 1:1 [1] | cleavage of fusion protein, LC-MS, 7 hours at 37° C., enzyme to substrate ratio 1:10 or 1:50 [2]
1 | pACSH307 protease (SEQ ID NO:10 tagged TEV protease) (protein) MKVILLRDVPKIGKKGEIKEVSDGYARNYLIPRGFAKEYTEGLERAIKHEKEIEKRKKEREREESEKILKELKKRTHVVKVKAGEGGKIFGAVTAATVAEEISKTTGLKLDKRWFKLDKPIKELGEYSLEVSLPGGVKDTIKIRVEREESSSGSSGSSGSSGESLFKGPRDYNPISSTICHLTNESDGHTTSLYGIGFGPFIITNKHLFRRNNGTLLVQSLHGVFKVKNTTTLQQHLIDGRDMIIIRMPKDFPPFPQKLKFREPQREERICLVTTNFQTKSMSSMVSDTSCTFPSSDGIFWKHWIQTKDGQCGSPLVSTRDGFIVGIHSASNFTNTNNYFTSVPKNFMELLTNQEAQQWVSGWRLNADSVLWGGHKVFMVKPEEPFQPVKEATQLMN | after incubation for 8 hours with an enzyme to substrate ration of 1:1, the major part of the S661 peptide was released from the pACSH248 fusion protein | 
2 | pACSH362 protease (SEQ ID NO:10 tagged HAV18 3C protease) (protein) MKVILLRDVPKIGKKGEIKEVSDGYARNYLIPRGFAKEYTEGLERAIKHEKEIEKRKKEREREESEKILKELKKRTHVVKVKAGEGGKIFGAVTAATVAEEISKTTGLKLDKRWFKLDKPIKELGEYSLEVSLPGGVKDTIKIRVEREESSSGSGSGSGSTLEIAGLVRKNLVQFGVGEKNGCVRWVMNALGVKDDWLLVPSHAYKFEKDYEMMEFYFNRGGTYYSISAGNVVIQSLDVGFQDVVLMKVPTIPKFRDITEHFIKKGDVPRALNRLATLVTTVNGTPMLISEGPLKMEEKATYVHKKNDGTTVDLTVDQAWRGKGEGLPGMCGGALVSSNQSIQNAILGIHVAGGNSILVAKLVTQEMFQNIDKKIESQ |  | A fragment representing the released S661 peptide was observed for both ratios
